Data taken from the RNAGym collection of RNA variant scans (doi:10.7554/elife.80360).

B1: Twister Ribozyme (parent)
chain: AACACUGCCAAUGCCGGUCCCAAGCCCGGAUAAAAGUGGAGGGGGCGG

Variants of: B1
Assay: self-cleavage, relative activity (ratio to wild type); higher = more cleavage; co-transcriptional

Variant | self-cleavage
G38U G47A | 0.564
G39A G47A | 0.363
G41U G47U | 0.3
G41U G47C | 0.209
G44C G47A | 0.371
G44C G47C | 0.353
G39U G42U | 0.149
G39U G42A | 0.104
C46U G48C | 1.1
G42C G44U | 0.162
G38C G41U | 0.304
G38C G41C | 0.181
G38C G41A | 0.295
G39U G43U | 0.143
G43A C46A | 0.334
G38U G44A | 0.811
G38U G44C | 0.829
G39A G41A | 0.153
G39A G41U | 0.125
G45C G47C | 0.427
G45C G47U | 0.177
G41U G42C | 0.164
G41U G42U | 0.125
G39C A40C | 0.114
G39C A40U | 0.165

Variant | self-cleavage
G39C A40G | 0.164
A40U G47C | 0.142
A40U G47U | 0.12
A40C G44A | 0.298
A40C G44U | 0.296
G41C G44A | 0.211
G41C G44C | 0.187
G44U G45C | 0.609
G42U G43A | 0.129
G39A G48A | 0.388
G39A G48U | 0.517
C46G G48U | 1.52
C46G G48C | 1.55
C46G G48A | 1
G47U G48C | 1.36
A40U | 0.158
A40C | 0.262
A40G | 0.153
G39U G44U | 0.164
A40C G41A | 0.115
A40C G41U | 0.157
G43A G45C | 0.434
A40C C46U | 0.236
A40C C46G | 0.218
G39U G47A | 0.14

Variant | self-cleavage
G39U G47C | 0.16
G44C G48A | 0.289
G45C C46U | 0.544
A40U G41A | 0.142
G38C G43A | 0.149
G38C G43U | 0.242
G38C G43C | 0.137
G45C G48U | 0.577
G45C G48A | 0.628
G45C G48C | 0.89
G38U | 0.923
G41A G43A | 0.171
G38C G47C | 0.388
G38C G47A | 0.737
G38C G47U | 0.76
G41A G47A | 0.278
G41A G47C | 0.2
G42C G43A | 0.139
G38U A40G | 0.101
G38U A40C | 0.127
G38U A40U | 0.116
A40G G48C | 0.14
A40G G48A | 0.193
G43A G47C | 0.208
G43A G47A | 0.237

Variant | self-cleavage
G42U G48C | 0.571
A40G G45U | 0.147
A40G G45C | 0.148
A40U G42U | 0.15
G45A G47A | 0.71
G41C C46U | 0.282
G47C G48C | 0.799
G47C G48U | 0.4
A40C G47A | 0.19
A40C G47C | 0.193
G42U G44A | 0.524
G39C G48A | 0.138
G44U G47A | 0.758
G44U G47C | 0.523
G45A G48C | 1.02
G42A G43U | 0.134
G42A G43A | 0.131
G42A G48C | 0.624
G39U G48U | 0.196
A40U C46A | 0.146
G39A G42C | 0.12
A40C G43C | 0.157
G38C G48A | 0.974
G38C G48C | 0.977
G38C G39A | 0.243

Variant | self-cleavage
A40G G47U | 0.143
G42C G48A | 0.516
G42C G48C | 0.606
C46U G47U | 1.02
G39C G44C | 0.167
G39C G44A | 0.137
G41C G48C | 0.332
G41C G48U | 0.288
G41C G48A | 0.234
A40G G42U | 0.172
G39A G43A | 0.152
G39A G43C | 0.134
G39U G45C | 0.183
C46G G47C | 0.981
G41C G45A | 0.334
G41C G45C | 0.253
G39A C46A | 0.463
G39A C46U | 0.445
G43C G47A | 0.138
G43C G47C | 0.159
G43C G47U | 0.13
A40C G48C | 0.343
G44U G48A | 0.717
G39C G45C | 0.105
G39C G45U | 0.158

Variant | self-cleavage
G39C G45A | 0.12
G43U G45C | 0.271
G43C G48A | 0.198
G43C G48C | 0.219
G42U C46A | 0.162
G41A G48C | 0.535
G41A G48A | 0.332
G42U G47A | 0.242
G38C C46U | 0.855
G47A G48U | 1.47
G38U G41U | 0.196
G38U G41A | 0.162
G38U G41C | 0.149
A40G G41A | 0.141
A40G G41C | 0.133
G45U G47A | 0.771
G43C G45A | 0.294
G38C A40G | 0.134
G38C A40C | 0.134
G42C C46U | 0.463
G42C C46G | 0.465
A40G G44U | 0.156
A40G G44C | 0.195
G39C G47A | 0.152
G43C C46U | 0.214

Variant | self-cleavage
G41U G44U | 0.193
G41U G44A | 0.403
G39C G43A | 0.103
A40G C46U | 0.155
A40G C46A | 0.164
G41A G45C | 0.151
G41A G45U | 0.196
G41A G45A | 0.588
C46A G48C | 0.995
G44A G47A | 0.867
A40G G43A | 0.147
A40U G44A | 0.155
A40U G44C | 0.178
G39C G41A | 0.0895
G39C G41C | 0.112
G44C G45U | 0.483
G44C G45C | 0.54
G39A A40G | 0.145
G39A A40U | 0.161
G39A A40C | 0.139
G43C G44U | 0.455
G42C G45U | 0.164
G41U G45C | 0.177
G41U G45A | 0.596
G38U G39C | 0.14

Variant | self-cleavage
G38U G39A | 0.185
G38U G42A | 0.129
G38U G42C | 0.177
G38U G42U | 0.12
G44A G45U | 1.11
G41C G47A | 0.235
G41C G47C | 0.162
A40C G42C | 0.164
G41U G48A | 0.401
G42A G47A | 0.282
G44C C46U | 0.732
G39U G41U | 0.149
G39U G41C | 0.121
G39U G41A | 0.0926
G44A G48C | 1.11
G44A G48U | 1.08
G39A G44C | 0.231
G39A G44U | 0.322
G42A C46G | 0.232
G41U G43A | 0.163
G41U G43C | 0.135
G38U C46G | 0.818
G38U C46U | 0.864
G39A G45A | 0.418
G45U C46U | 0.669

Variant | self-cleavage
G45U C46G | 0.52
G38C G45C | 0.473
G38C G45U | 0.719
G44A C46U | 0.988
G44A C46A | 0.878
G44A C46G | 0.895
G42A G45A | 0.422
A40U G43A | 0.132
A40U G43C | 0.114
G38U G48A | 0.854
G38U G48U | 1.05
G39C C46U | 0.14
G41U C46A | 0.512
G38U G43U | 0.156
G38U G43A | 0.154
G38U G43C | 0.126
C46A G47A | 1.03
C46A G47C | 0.952
C46A G47U | 0.832
G38C G42U | 0.183
G38C G42C | 0.238
G41C G43C | 0.148
G41C G43A | 0.141
G41C G43U | 0.153
